A short description of the data set: yeast display, Sf9 membrane polyspecificity reagent, FACS + sequencing; frameworks hold sequencing errors. Put shortly:
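Genes from sorted yeast were amplified by colony PCR, read by MiSeq 2 × 250 sequencing and filtered on CDR length. These cells carried a synthetic nanobody library in Saccharomyces cerevisiae BJ5465 and were sorted by FACS into low and high (top ~1%) gates on anti-HA and streptavidin fluorescence. Polyreactivity is labelled according to the gate of origin.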
On to “QVQLVESGGGLVQAGGSLRLSCAASGSIFSVNAMGWYRQAPGKETELVAGITISGGRTYYADSVKGRFTISRDNAKNTVYLQLNSLKPEDNAVYYCAADWVYPPGLKDSVHFGEYDYWGEGTQVTVSS”, for which the “polyreactivity (PSR sort gate)” value is reported as “low polyreactivity”. “QVQLVESGGGLVQAGGSLRLSCAASGSIFSVYAMGWYRQAPGKERELVAAINWDGTSTDYADSVKGRFTISRDNAKNTVYLQMNSLKPEDTAVYYCAAEGHTAFLVYRVSPLQYDYWGQGTQVTVSS”: the “polyreactivity (PSR sort gate)” value is “low polyreactivity”. Under “QVQLVESGGGLVQAGGSLRLSCAASGSIFSVYAMGWYRQAPGKERELVAAISRSGGSTYYADSVKGRFTISRDNAKNTVYLQMNSLKPEDTAVYYCAARLAGRGSSSSRVVRTGGYWGQGTQVTVSS” stands “high polyreactivity”. In the case of “QVQLVESGGGLVQAGGSLRLSCAASGSIFSVYAMGWYRQAPGKERELVAVIWRGGSTNYADSVKGRFTISRDNAKNTVYLQMNSLKPEVTALYYCNARTFYRKFWYQFVSSYGYDYWGQGTQVTVSS” it was “low polyreactivity”; in that of “QVQLVESGGGLVQAGGSLRLSCAASGSIFSVYVMGWYRQAPGKESELVAAISWSDRDTYYADSVKGRFTISRDYAKNTVDFQMNSLKPVDTAVYYGAAETFDYDVYIANGSGEYDYWGQVTQVTVSS”, “high polyreactivity”; in that of “QVQLVESGGGLVQAGGSLRLSCAASGSIFSWYAMGWYRQAPGKERELVAAIDSGSKYYADSVKGRFTISRDNAKNTVYLQMNSLKPEDTAVYYCAVDYGYYYWEPWPSDYDMYSWGQGTQVTVSS”, “high polyreactivity”. Under “QVQLVESGGGLVQAGGSLRLSCAASGSIFSWYAMGWYRQAPGKERELVAAISWSSGSTYYADSVKGRFTISRDNAKNTVYLQMNSLKPEDTAVYYCAADATYLGWYELYYWGQGTQVTVSS” stands “high polyreactivity”; under “QVQLVESGGGLVQAGGSLRLSCAASGSIFSYNAMGGYRPAPGKARELVAAITLSDGGTYYADSVKGRFTISRDNAKNTVYLQMNSLKPEDTAVYYCATTYWLWITYSAYYYWGQGSQVTVSS”, “low polyreactivity”.

Regarding “QVQLVESGGGLVQAGGSLRLSCAASGSIFSYNAMGWYRKAPGKERELVAAIRASGGDTYYADSVKGRFTISRDNAKNTVYLQMNSLKPEDTAVYYCAARTYAHHYASHGYWGQGTQVTVSS”, the “polyreactivity (PSR sort gate)” value is given as “low polyreactivity”. In the case of “QVQLVESGGGLVQAGGSLRLSCAASGSIFSYNAMGWYRQAPGKERELVAAITSGDSTNYADSVKGRFTISRDNAKNTVYLQMNSLKPEDTAVYYCAADPVLPAFGYVGTSLGDYWGQGTQVTVSS” it was “low polyreactivity”; in that of “QVQLVESGGGLVQAGGSLRLSCAASGSIFSYTMGWYRQAPGKERELVAAITSGGITYYADSVKGRFTISRDNAKNTVYLQMNSLKPEDTAVYYCNKDVGFTRPLYYWGQGTQVTVSS”, “low polyreactivity”; in that of “QVQLVESGGGLVQAGGSLRLSCAASGSIFSYYAMGWSRQAPGKERELVAAISWGDDSTYYADSVKGRFTISRDNAKNTVYLQMNSLKPEDTAVYYCAADRVGWYRTFDYWGQGTQVTVSS”, “low polyreactivity”. Under “QVQLVESGGGLVQAGGSLRLSCAASGSIFSYYAMGWSRQEHGKERELVAAITRSGSTNYADSVKGRFTISRDNAKNTVYLQMNSLKPEDTAVYYCARRHYSSRVIYVSSKGGYWGQGTQVTVSS” stands “high polyreactivity”; under “QVQLVESGGGLVQAGGSLRLSCAASGSIFSYYAMGWYRPAPGKERELVAAISWSGGSTYYADSVKGRFTISRDNAKNTVSLQMNSLIPADTAVYYCAAGVTYEKQTKYYYWGQGTQVTVSS”, “high polyreactivity”. Consider “QVQLVESGGGLVQAGGSLRLSCAASGSIFSYYAMGWYRQAPGKERELVAAISGDSGRTYYADSVKGRFTISRDNAKNTVYLQMNSLKPEDTAVYYCNARVAYRYRTGYDYWGQGTQVTVSS”, for which the “polyreactivity (PSR sort gate)” value is recorded as “high polyreactivity”. On to “QVQLVESGGGLVQAGGSLRLSCAASGSIFSYYAMGWYRQAPGKERELVAAISSGVSSTYYADSVKGRFTISRDNAKNTVYLQMNSLKPEYTAVYYCNADRPYRLNEYWGQGTQVTVSS”, for which the “polyreactivity (PSR sort gate)” value is “high polyreactivity”. In the case of “QVQLVESGGGLVQAGGSLRLSCAASGSIFSYYAMGWYRQAPGKERELVAAISWTGGSTYYADSVKGRFTISRDNAKNTVYLQMNSLKPEDTAVYYCAADSPRSDRDSYDYWGQGTQVTVSS” it was “high polyreactivity”; in that of “QVQLVESGGGLVQAGGSLRLSCAASGSIFSYYAMGWYRQAPGKERELVAAITIRGGRTYYADSVKGRFTISRDNAKNSVYLQMNSLKPEDTAVYYCAAETGHKQHGYTYEVSRRCYGYWGQGTQVTVSS”, “low polyreactivity”. In the case of “QVQLVESGGGLVQAGGSLRLSCAASGSIFSYYAMGWYRQAPGKERELVAAITISGSSTYYADSVKGRFTISRDNAKNTVYLQMNSLKPEDTAVYYCNVVPLGSKNSVSHYYWGQGTQVTVSS” it was “high polyreactivity”. Consider “QVQLVESGGGLVQAGGSLRLSCAASGSIFSYYAMGWYRQAPGKERELVAAITTNTGNTYYADSVKGRFTISRDNAKNTVYLQMNSLKPEDSAVYYCAKSGVADFYYTYYYWGQGTQVNVSS”, for which the “polyreactivity (PSR sort gate)” value is listed as “low polyreactivity”. Turning to “QVQLVESGGGLVQAGGSLRLSCAASGSIFSYYAMGWYRQAPGKERELVAAITTSGGSTYYADSVKGRFTISRDNAKNTVYLQMNSLKPEDTAVYYCNAGPYWWYYGEDYWGQGSQVTVSS”, the “polyreactivity (PSR sort gate)” value is recorded as “low polyreactivity”.

For the sequence “QVQLVESGGGLVQAGGSLRLSCAASGSIFSYYAMGWYRQAPGKERELVADITANDGSTYYADSVKGRFTISRDNAKNTVYLQMHSLKPEVTAVYYCAAASDLYGSIWIETGVTSDYWGQGTQVTVSS”, the “polyreactivity (PSR sort gate)” value was “high polyreactivity”. Under “QVQLVESGGGLVQAGGSLRLSCAASGSIFSYYAMGWYRQAPGKERELVADITVRGGSTYYADSVKGRFTISRDNAKNTVYLQMNSLIPEDTAVYYCAADWLDESFSYGPYYYWGQGTQVTVSS” stands “low polyreactivity”; under “QVQLVESGGGLVQAGGSLRLSCAASGSIFSYYTMGWYRQAPGKERELVAAISFRGTSTYYADSVKGRFTISRDNAKNTVYLQMNSLKPEDTAVYYCAKRALYYPTYPKYDTYNRYYWGQGTQVTVSS”, “high polyreactivity”; under “QVQLVESGGGLVQAGGSLRLSCAASGSIFTAYALGWYRQAPGKERELVAAIDDSGDSTYYADSVKGRFTISRDNAKNTVYLQMHSLKPEDTAVNYCKAEYRVNKEYDYWGQGTQVTVSS”, “low polyreactivity”. Under “QVQLVESGGGLVQAGGSLRLSCAASGSIFTAYAMGWYRPAPGKERELVAAITSGGSTNYADSVKGRFTISRDNAKNTVYLQMNSLKPEDTAVYYCNADDYWLDSWSSVLWYDYWGQGTQVTVSS” stands “low polyreactivity”. Consider “QVQLVESGGGLVQAGGSLRLSCAASGSIFTEYAMGWYRQAPGKERELVAAISWSGATTYYADSVKGRFTISRDNAKNTVYLQMNSLKPEDTAVYYCAARWANRSYEYWGQGTQVSVSS”, for which the “polyreactivity (PSR sort gate)” value was “low polyreactivity”. In the case of “QVQLVESGGGLVQAGGSLRLSCAASGSIFTFYAMGWYRQAPGKERELVARITRGVSTNYADSVKGRFTISRDNAKITVYLQLNSLKPEDTAVYYCAAESGNRYEYWGQGTQVTVSS” it was “low polyreactivity”; in that of “QVQLVESGGGLVQAGGSLRLSCAASGSIFTGNAMGSYRQAPGKERELVAAISSSGARTYYADSVKGRFTISRDNAKNTVNLQMNSLKPEDTAVYYCNADSYTLYGLYDYWGQGTKVTVSS”, “low polyreactivity”.
